In the supplement of paper PMC10126150:
± gives the standard deviation of the averaged measurements.

system: ATP; test: switch fluorescence ratio, 500 uM ATP over buffer (Cy3 cluster intensity, sum of 5 cycles each) (fold (ratio)); higher = stronger signal-on switching upon ATP binding; sequences stand for … in TCGTCGGCAGCGTCAGATGTGTATAAGAGACAGTTTTTTTTTTTTTTTTTTTTTTTTT…TC; conditions: aptamer strand: ATP DNA aptamer (quencher-CACCTGGGGGAGTATTGCGGAGGAAGG + anchor), 100 nM annealed; ATP concentration: 500 uM
Method in brief: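 Per cluster, summed Cy3 intensity from the target cycles was divided by that from the buffer cycles to give the fluorescence ratio, then averaged per switch-domain sequence. Clusters outside 100-1000 RFU were excluded. The Cy3-labelled switching-strand clusters, on a modified Illumina MiSeq flow-cell, were annealed to 100 nM quencher-labelled ATP aptamer and imaged in selection buffer, then after 15 min with 500 uM ATP at 22 °C, for five cycles with NaOH stripping and re-annealing between them.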
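Further: ATP exposure 15 min at 22 °C before imaging.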

Sequence	switch fluorescence ratio
GGTTACCGTG	0.997 ± 0.033
GGTTACGCTA	1.11 ± 0.074
GGTTACGGGG	1.01 ± 0.013
GGTTACGGTA	1.04 ± 0.031
GGTTAGATTG	1.01 ± 0.006
GGTTAGGATG	0.97 ± 0.025
GGTTAGTATG	1.01 ± 0.027
GGTTATCGAG	0.975 ± 0.037
GGTTATGGCC	1.01 ± 0.031
GGTTATGGGA	0.996 ± 0.032
GGTTATGGTA	0.9715 ± 0.0063
GGTTATGTGT	0.964 ± 0.014
GGTTATTGGG	0.98 ± 0.075
GGTTATTGGT	1.02 ± 0.021
GGTTATTTA	0.992 ± 0.035
GGTTCAAGGT	0.994 ± 0.027
GGTTCAGGGC	1.02 ± 0.047
GGTTCATTTT	1.01 ± 0.025
GGTTCGAGAG	0.964 ± 0.012
GGTTCGGATC	0.99316 ± 0.00058
GGTTCGGCGG	1.01 ± 0.045
GGTTCGTCTG	0.981 ± 0.021
GGTTGAAAGT	1.48 ± 0.69
GGTTGAAGGT	1 ± 0.03
GGTTGACGAG	0.986 ± 0.012

Sequence	switch fluorescence ratio
GGTTGACTTA	1.03 ± 0.011
GGTTGAGATG	0.982 ± 0.014
GGTTGAGCGG	0.993 ± 0.011
GGTTGAGCTG	0.945 ± 0.056
GGTTGAGGTT	1.04 ± 0.022
GGTTGCAAGA	1.01 ± 0.015
GGTTGCACGC	1.01 ± 0.0046
GGTTGCAGCT	0.975 ± 0.018
GGTTGCCATA	0.944 ± 0.025
GGTTGCGCTT	1.29 ± 0.39
GGTTGGCCGT	1.03 ± 0.051
GGTTGGGATG	0.951 ± 0.022
GGTTGGGTTG	0.987 ± 0.019
GGTTGGTGGG	0.969 ± 0.044
GGTTGTATCG	1 ± 0.05
GGTTGTGCTT	0.995 ± 0.0039
GGTTTAAAGA	1 ± 0.038
GGTTTAAATG	1.0317 ± 0.00089
GGTTTAAGGC	0.993 ± 0.047
GGTTTAAGTT	0.99 ± 0.03
GGTTTAATAG	0.986 ± 0.026
GGTTTAATGT	0.9927 ± 0.0098
GGTTTAGGGG	0.985 ± 0.032
GGTTTAGTCA	0.9719 ± 0.00067
GGTTTATCGT	0.974 ± 0.022

Sequence	switch fluorescence ratio
GGTTTATGTT	1 ± 0.019
GGTTTATTGG	1 ± 0.03
GGTTTCATGA	1.01 ± 0.026
GGTTTCCGCC	1.169 ± 0.0023
GGTTTCGCCA	0.9807 ± 0.0096
GGTTTCGCTT	1.03 ± 0.046
GGTTTCGGGA	1.01 ± 0.021
GGTTTCTAAG	1.01 ± 0.042
GGTTTGAGTA	1.02 ± 0.074
GGTTTGCAGT	1.003 ± 0.0093
GGTTTGCTAG	1.04 ± 0.072
GGTTTGGATA	0.985 ± 0.028
GGTTTGGCGT	0.981 ± 0.017
GGTTTGGGCG	1.03 ± 0.034
GGTTTGGGCT	0.983 ± 0.051
GGTTTGGGGA	0.983 ± 0.011
GGTTTGGGGC	1.03 ± 0.074
GGTTTGGGTG	0.995 ± 0.04
GGTTTTAGGT	0.988 ± 0.035
GGTTTTATGA	1.002 ± 0.0062
GGTTTTGGGC	1.02 ± 0.042
GGTTTTGTAA	0.982 ± 0.018
GGTTTTGTTC	1.09 ± 0.11
GGTTTTGTTT	0.9996 ± 0.0075
GGTTTTTAAG	0.995 ± 0.023

Sequence	switch fluorescence ratio
GGTTTTTACA	0.981 ± 0.024
GGTTTTTATT	0.992 ± 0.0092
GGTTTTTCGG	1.04 ± 0.014
GGTTTTTGAG	0.9564 ± 0.0045
GGTTTTTGTA	0.995 ± 0.025
GGTTTTTTCT	1.03 ± 0.088
GTAAAAAGAG	1 ± 0.011
GTAAAAGTTG	1 ± 0.026
GTAAAGAAAA	1.05 ± 0.081
GTAAAGTTTT	0.991 ± 0.018
GTAAATTAGT	1.02 ± 0.04
GTAAATTATG	0.986 ± 0.018
GTAAATTGTG	1.01 ± 0.047
GTAAATTTTT	1.01 ± 0.017
GTAACTGCAG	0.993 ± 0.051
GTAAGATGTG	1.03 ± 0.028
GTAAGGAAAG	1.04 ± 0.062
GTAAGGATGT	0.988 ± 0.038
GTAAGGCGCA	0.9885 ± 0.0086
GTAAGGGTTG	0.961 ± 0.012
GTAAGTGAGT	0.994 ± 0.037
GTAATAATGG	0.988 ± 0.053
GTAATAGAGG	0.9774 ± 0.0096
GTAATAGTTT	1 ± 0.036
GTAATATTTC	0.992 ± 0.027
